Reference: PMC5220579 (Molecular immunology, 2016)

Key:
[1] = biological target: T1, human PVR (poliovirus receptor) (human, UniProt P15151 21-343); test: SPR
T1 sequence (looked up): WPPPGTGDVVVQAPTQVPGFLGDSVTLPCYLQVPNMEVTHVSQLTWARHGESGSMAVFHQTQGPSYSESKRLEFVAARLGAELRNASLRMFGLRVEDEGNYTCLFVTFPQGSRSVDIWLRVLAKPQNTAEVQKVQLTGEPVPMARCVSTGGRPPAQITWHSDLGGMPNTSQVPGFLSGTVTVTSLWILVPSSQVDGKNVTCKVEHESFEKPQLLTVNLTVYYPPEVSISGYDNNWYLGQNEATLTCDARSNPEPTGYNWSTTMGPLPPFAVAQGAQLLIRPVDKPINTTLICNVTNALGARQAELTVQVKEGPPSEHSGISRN

[2] = biological target: T2, IgV domain of human nectin-2 (human, UniProt Q92692 32-158); test: SPR
T2 sequence: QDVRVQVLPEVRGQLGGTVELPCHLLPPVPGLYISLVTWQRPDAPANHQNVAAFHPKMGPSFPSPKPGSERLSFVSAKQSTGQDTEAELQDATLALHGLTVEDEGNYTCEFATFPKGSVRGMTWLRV

B1: IgV domain of human TIGIT (residues 22 to 137) (domain or fragment, UniProt Q495A1 22-137, looked up)
chain: MMTGTIETTGNISAEKGGSIILQCHLSSTTAQVTQVNWEQQDQLLAICNADLGWHISPSFKDRVAPGPGLGLTLQSLTVNDTGEYFCIYHTYPDGTYTGRIFLEVLESSVAEHGAR
Which Kd [1] does the source give for B1 here?
Its Kd is 0.36 ± 0.025 µM.

And the Kd [2]?
The Kd was 11.5 ± 1.1 µM.
